Measurements published in patent publication US20190345255A1.
Blank lines part the entries; values can stand above or below the molecule they belong to.

Assays:
[1] = target: Mouse recombinant MGL2 (macrophage galactose binding lectin 2) (mouse); test: competition ELISA on MGL2-coated plate; 10 µg/mL Tn-BSA against 10 µg/mL biotinylated Tn-PS A1 probe 25a (a polysaccharide) as competitor
[2] = target: Mouse recombinant MGL2 (macrophage galactose binding lectin 2) (mouse); test: competition ELISA on MGL2-coated plate; 10 µg/mL Tn-BSA against 10 µg/mL biotinylated TF-PS A1 probe 25b (a polysaccharide) as competitor
[3] = target: Tn-BSA (Tn antigen conjugated to bovine serum albumin) (bovine) (UniProt P02769); test: ELISA titration of purified IgM, Tn-BSA coated plates
Sequence of UniProt P02769 (P02769 25-607 limits assumed, form in doubt): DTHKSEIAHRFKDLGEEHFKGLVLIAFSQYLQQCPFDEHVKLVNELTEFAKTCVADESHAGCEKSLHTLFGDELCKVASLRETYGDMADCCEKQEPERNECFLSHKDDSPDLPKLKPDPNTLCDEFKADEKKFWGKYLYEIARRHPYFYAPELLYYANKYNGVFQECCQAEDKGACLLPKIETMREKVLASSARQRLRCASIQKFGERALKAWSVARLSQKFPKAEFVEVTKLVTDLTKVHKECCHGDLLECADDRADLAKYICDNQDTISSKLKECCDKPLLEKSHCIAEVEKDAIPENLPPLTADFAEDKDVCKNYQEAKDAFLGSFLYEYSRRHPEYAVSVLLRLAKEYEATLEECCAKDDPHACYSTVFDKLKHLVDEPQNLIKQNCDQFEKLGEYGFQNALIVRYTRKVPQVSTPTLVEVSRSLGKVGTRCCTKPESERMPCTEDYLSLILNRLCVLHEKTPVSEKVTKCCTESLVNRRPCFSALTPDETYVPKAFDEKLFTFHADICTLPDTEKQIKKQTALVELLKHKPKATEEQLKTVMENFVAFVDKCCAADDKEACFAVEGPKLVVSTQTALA

percent inhibition [1]: 44% | percent inhibition [2]: 64%
Molecule: Tn-BSA (Tn antigen conjugated to bovine serum albumin) (from UniProt P02769 25-607)

optical density (O.D.) at 0.3 µg/mL antibody [3]: > 0.2 O.D.
B1: Kt-IgM-8 (antibody, V domains shown)
VH: QIQLVQSGPELKKPGETVKISCKASGYTFTTYGMSWVKQAPGKGLKWMGWINTYSGVPTYADDFKGRFAFSLETSASTAYLQINNLKNEDTATYFCARHYYGGAYWGQGTLVTVSA
VL: QIVLTQSPAIMSASPGEKVTMTCSASSSVSYMHWYQQKSGTSPKRWIYDTSKLASGVPARFSGSGSGTSYSLTISSMEAEDAATYYCQQWSSNPLTFGAGTKLELK
